System: MS2 coat protein
Assay: apparent KD of MS2 coat protein; designed switch direction (-1 OFF switch, 1 ON switch): 1; higher = weaker reporter binding
Procedure, shortened: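 Apparent KD, taken as the median over clusters for each design, was obtained by curve-fitting normalised cluster fluorescence. Designed RNA switches had been transcribed on Illumina chips by stalled E. coli RNA polymerase and titrated with SNAP-549-labelled MS2 coat protein, doubling from 0.7 or 1.5 nM to 3 µM.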

[1] = Eterna round: R95, input ligand: FMN 200 uM
[2] = Eterna round: R95, input ligand: microRNA oligo, concentration not stated
[3] = Eterna round: R95, input ligand: none
[4] = input ligand: microRNA oligo, concentration not stated

UUAAAACAUGAGGAUCACCCAUGUCAUCUAAGUCGAGGAUAUGGGAAUUAAUUAAUUAAACCAGAAGGCGAAUAUU [Mat - Same State 1 - D90] (puzzle: Same State 1)
apparent KD of MS2 coat protein [1]: 0.0386 µM | apparent KD of MS2 coat protein [2]: 0.439 µM | apparent KD of MS2 coat protein [3]: 0.543 µM

GGGAGAGACGCAGGAUAUGGUGAGGAUUACCCACUAGAAGGGUGGACAUGAGAAUCGAACAUGAGGAUCACCCAUGUUCUGAGG (Eterna round: R96, puzzle: Same State NG 1)
apparent KD of MS2 coat protein (input ligand: FMN 200 uM): 0.064 µM | apparent KD of MS2 coat protein [4]: 0.0443 µM | apparent KD of MS2 coat protein (input ligand: none): 0.066 µM

GGUAGGUUACUACCAAACAUGAGGAUCACCCAUGUAAGUGGGAAGGAUAUGGUACCGAAACGGUACCAGAAGGUCCAUAUAGUA [Mat - Same State NG 3 - JL Mod - D100] (Eterna round: R96, puzzle: Same State NG 3)
apparent KD of MS2 coat protein (input ligand: FMN 200 uM): 0.324 µM | apparent KD of MS2 coat protein [4]: 0.564 µM | apparent KD of MS2 coat protein (input ligand: none): 1.1 µM

ACACGGAUACAUGAGGAUCACCCAUGUACAUGGGUUAUUACAAGCUUUUUGCUUGGGAUUAUUGGGAUUAUUAUUAA [Default title] (puzzle: Sensor for hsa-mir-208a version 2)
apparent KD of MS2 coat protein [1]: 0.122 µM | apparent KD of MS2 coat protein [2]: 0.156 µM | apparent KD of MS2 coat protein [3]: 0.153 µM

CGAACACGUUGAGGAUAUGCAGAGGAUCACCCUGUAGAAGGCAACAGAUGAGGAUAUGCAGAGGAUCACCCUGUAGAAGGCAAC [pwkr ssNG DX.5] (Eterna round: R96, puzzle: Same State NG 1)
apparent KD of MS2 coat protein (input ligand: FMN 200 uM): 0.0543 µM | apparent KD of MS2 coat protein [4]: 0.0686 µM | apparent KD of MS2 coat protein (input ligand: none): 0.116 µM

AGUCCAGCCUGAGCUGGACAAAAGCAUGUACAUGAGGAUCACCCAUGUCAUGUACAAGCUUUUUGCUCGUCUUAAGA [Mat - hsa-mir-208a - Mod of JL - D21] (Eterna round: R96, puzzle: Sensor for hsa-mir-208a)
apparent KD of MS2 coat protein (input ligand: FMN 200 uM): 0.806 µM | apparent KD of MS2 coat protein [4]: 0.0162 µM | apparent KD of MS2 coat protein (input ligand: none): 0.84 µM

AUUAACAUGAGGAUCACCCAUGUUACGAGCUUAGCUCGGACACAGGAUAUCCGGUCCUAGAGACCGGAGAAGGGUGCCUUAUAA [Zara MOD4] (Eterna round: R96, puzzle: Same State NG 3)
apparent KD of MS2 coat protein (input ligand: FMN 200 uM): 0.742 µM | apparent KD of MS2 coat protein [4]: 0.123 µM | apparent KD of MS2 coat protein (input ligand: none): 0.265 µM

UAGAAACAUGAGGAUCACCCAUGUGUCAAAGACAUAGGAUAUCACGACUGGAGUCAAUCGUGAGAAGGGUGGUAAA [Usra] (puzzle: Same State 1)
apparent KD of MS2 coat protein [1]: 0.0923 µM | apparent KD of MS2 coat protein [2]: 0.0194 µM | apparent KD of MS2 coat protein [3]: 0.0387 µM

UGUUGUAUUACAGGAUAUCUAGUAUUUUUAGUUAGAGAAGGGUAUUCACAUGAGGAUCACCCAUGUAUAUACGAGGAAGUUGUG [JMF's solution 49] (Eterna round: R96, puzzle: Same State NG 1)
apparent KD of MS2 coat protein (input ligand: FMN 200 uM): 0.0437 µM | apparent KD of MS2 coat protein [4]: 0.0369 µM | apparent KD of MS2 coat protein (input ligand: none): 0.0457 µM

UAGAAUCUAUCUCAGGAUAUCAUGUCAAAGACAUGAGGAUCACCCAUGUACCAGGAAACUGGUUAUGAGAAGGGAGAUAGAUUCU [Mat - Same State 2 - Mod - D33] (puzzle: Same State 2)
apparent KD of MS2 coat protein [1]: 0.16 µM | apparent KD of MS2 coat protein [2]: 0.158 µM | apparent KD of MS2 coat protein [3]: 0.281 µM

GACAUGAGGAUCACCCAUGUGAGCGCUUCAAUUUGCGCGACACAGGAUAUAGCAUGCUAUGCAUGCUAGAAGGGUGGUAAAGAC [Risoeserxe] (Eterna round: R96, puzzle: Same State NG 3)
apparent KD of MS2 coat protein (input ligand: FMN 200 uM): 0.595 µM | apparent KD of MS2 coat protein [4]: 0.0499 µM | apparent KD of MS2 coat protein (input ligand: none): 0.14 µM

UAGCUCGUGUGAGGAUAUGCCGCCGUUUCGGCUGCAGAAGGUGCUACGUUACAUGAGGAUCACCCAUGUCUCUGUUGUUUCGUU [salish99_SSNG1_r04_956] (Eterna round: R96, puzzle: Same State NG 1)
apparent KD of MS2 coat protein (input ligand: FMN 200 uM): 0.0215 µM | apparent KD of MS2 coat protein [4]: 0.0175 µM | apparent KD of MS2 coat protein (input ligand: none): 0.0231 µM

GGUACCAACACAGGAUAUGCUAUCCUUUGGGUAGCAGAAGGGUGGUACAUGAGGAUCACCCAUGUGGUGCCAGGGCGUGAGCCC [JL SSNG1 1.95] (Eterna round: R96, puzzle: Same State NG 1)
apparent KD of MS2 coat protein (input ligand: FMN 200 uM): 0.383 µM | apparent KD of MS2 coat protein [4]: 1.19 µM | apparent KD of MS2 coat protein (input ligand: none): 4.44 µM

AACAGUCGGCGAGGAUAUGGACGUACAGGUUUGCCUGUGCGGCUCACAUGAGGAUCACCCAUGUUCUAGAAGGCGCCACUGUGA [Racearza] (Eterna round: R96, puzzle: Same State NG 2)
apparent KD of MS2 coat protein (input ligand: FMN 200 uM): 0.0156 µM | apparent KD of MS2 coat protein [4]: 0.06 µM | apparent KD of MS2 coat protein (input ligand: none): 0.0739 µM

CGUCCGGCCUGUGCUGGCCGGUGGCUUGUACAUGAGGAUCACCCAUGUUCUUGUGCUGGCUUGUUGCUCGUCUUGUG [salish99_mir208a_r3_022] (puzzle: Sensor for hsa-mir-208a)
apparent KD of MS2 coat protein [1]: 0.0279 µM | apparent KD of MS2 coat protein [2]: 0.0191 µM | apparent KD of MS2 coat protein [3]: 0.0334 µM

CGGUGUGAGAAAGGAUAUGUUCGCUAGUCGCGAGCAGAAGGUUCUGCGCGCUGCUAUACGAACAUGAGGAUCACCCAUGUAAAA [Laqu] (Eterna round: R96, puzzle: Same State NG 1)
apparent KD of MS2 coat protein (input ligand: FMN 200 uM): 0.13 µM | apparent KD of MS2 coat protein [4]: 0.0118 µM | apparent KD of MS2 coat protein (input ligand: none): 0.0692 µM

AUUUAACAAGCUUUUUGCUCGUCUUAUAAACAUGAGGAUCACCCAUGUAAUAGCGUGAGAGUAAAUAAAUAAAUAAU [JMF 82] (puzzle: Sensor for hsa-mir-208a)
apparent KD of MS2 coat protein [1]: 0.0171 µM | apparent KD of MS2 coat protein [2]: 0.0427 µM | apparent KD of MS2 coat protein [3]: 0.0142 µM

UCUCGGGUCGUAGGAUAUGUAGGAUAUGUACAUGAGGAUCACCCAUGUCUACCAGAGACAGAAGGACAGAAGGACGAGCCGAUC [pwkr ssNG2 2FMN 1F5s.6] (Eterna round: R96, puzzle: Same State NG 2)
apparent KD of MS2 coat protein (input ligand: FMN 200 uM): 0.0209 µM | apparent KD of MS2 coat protein [4]: 0.0258 µM | apparent KD of MS2 coat protein (input ligand: none): 0.0437 µM

UUCACCUUUUAUAACAUGAGGAUCACCCAUGUAUAUUGUACGUAGGAUAUCGAUGUUUGUUUUUUCGAGAAGGACGAUGUAAGU [JR_SSND3_Sub050] (Eterna round: R96, puzzle: Same State NG 3)
apparent KD of MS2 coat protein (input ligand: FMN 200 uM): 0.037 µM | apparent KD of MS2 coat protein [4]: 0.0254 µM | apparent KD of MS2 coat protein (input ligand: none): 0.0389 µM

UCGGGCGUACUUGCUGACAUGAGGAUCACCCAUGUGCUUGGGAAGGAUAUGGUUCCGUUUCGGUUCCAGAAGGUCCUGGCUGCU [salish99_SSNG3_r04_316] (Eterna round: R96, puzzle: Same State NG 3)
apparent KD of MS2 coat protein (input ligand: FMN 200 uM): 0.116 µM | apparent KD of MS2 coat protein [4]: 0.047 µM | apparent KD of MS2 coat protein (input ligand: none): 0.0798 µM

CGACACACGGCAGGAUAUCGAUUCCAAAGGAAUCGAGAAGGGCCUCAUGUCGUGGAAACGUGACAUGAGGAUCACCCAUGUUGC [Omei SS(NG)1 Cv18] (Eterna round: R96, puzzle: Same State NG 1)
apparent KD of MS2 coat protein (input ligand: FMN 200 uM): 0.0268 µM | apparent KD of MS2 coat protein [4]: 0.0116 µM | apparent KD of MS2 coat protein (input ligand: none): 0.0246 µM

CAUCUCCCUUUUACAUGAGGAUCACCCAUGUUUUUAUAAUGAGAGGAUAUCGUAUUUAGAAACAUCGAGAAGGCUCAAUUGUAU [JR_SSNG3_Sub071] (Eterna round: R96, puzzle: Same State NG 3)
apparent KD of MS2 coat protein (input ligand: FMN 200 uM): 0.131 µM | apparent KD of MS2 coat protein [4]: 0.093 µM | apparent KD of MS2 coat protein (input ligand: none): 0.153 µM

GGUAUCGGCGCAGGAUAUGCUAUCCUUUGGGUAGCAGAAGGGUGAACAUGAGGAUCACCCAUGUAGGUGCCAGGGCGUGAGCCC [JL SSNG1 1.81] (Eterna round: R96, puzzle: Same State NG 1)
apparent KD of MS2 coat protein (input ligand: FMN 200 uM): 1.13 µM | apparent KD of MS2 coat protein [4]: 0.147 µM | apparent KD of MS2 coat protein (input ligand: none): 0.444 µM

Source: the supplement of paper PMC9170038
